Assay results from FireProtDB (doi:10.1021/bi00213a031).
Where “and” joins values, the source holds several entries; their conditions need not be identical. Equal entries are not always repeated.

Conditions: Escherichia coli (strain K12), pH 7.8, 25 °C, Urea, phosphate 58 mM, transition: 3, whole UniProt chain shown

B1: Tryptophan synthase alpha chain wild type, P0A877 (protein)
chain: MERYESLFAQLKERKEGAFVPFVTLGDPGIEQSLKIIDTLIEAGADALELGIPFSDPLADGPTIQNATLRAFAAGVTPAQCFEMLALIRQKHPTIPIGLLMYANLVFNKGIDEFYAQCEKVGVDSVLVADVPVEESAPFRQAALRHNVAPIFICPPNADDDLLRQIASYGRGYTYLLSRAGVTGAENRAALPLNHLVAKLKEYNAAPPLQGFGISAPDQVKAAIDAGAAGAISGSAIVKIIEQHINEPEKMLAALKVFVQPMKAATRS
Q: For B1, which denaturant m value (Absorbance) is on record?
A: 2.8 kcal/mol/M and 1.3 kcal/mol/M

Q: What about the “denaturant midpoint (higher = more stable)” value (Absorbance) of the same protein?
A: 2.5 M and 3.9 M

Q: And the unfolding free energy (Absorbance)?
A: 6.8 kcal/mol and 5.1 kcal/mol

Q: And the denaturant m value (CD)?
A: 2.5 kcal/mol/M and 1.2 kcal/mol/M

Q: What about the “denaturant midpoint (higher = more stable)” value (CD) of the same protein?
A: 2.5 M and 4 M

Q: What about the unfolding free energy (CD) of the same protein?
A: 6.2 kcal/mol and 4.6 kcal/mol
